The record followed here is US20180155451A1 (published 2018).

The labels stand for the following.
T1: FcγRIIb extracellular domain with C-terminal His tag (human, UniProt P31994 43-217)
T1 construct: extracellular domain; also called 2b; FcgRIIb; not shown: His tag at the C terminus
T1 sequence (looked up): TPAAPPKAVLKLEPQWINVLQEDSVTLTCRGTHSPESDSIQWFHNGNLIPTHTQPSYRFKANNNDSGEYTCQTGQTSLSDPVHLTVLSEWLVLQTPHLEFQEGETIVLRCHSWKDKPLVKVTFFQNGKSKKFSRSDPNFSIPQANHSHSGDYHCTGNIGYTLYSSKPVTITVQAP

T2: FcγRIIb (human, UniProt P31994 43-217)
T2 construct: extracellular domain; also called 2b; FcgRIIb
T2 sequence (looked up): T1 sequence (looked up)

B1: GpH7-A5/GpH7-B3 variant V266_01G/GpL16-k0 (antibody, human IgG1, kappa)
heavy 1: not shown
heavy 2: not shown
light: DIVMTQSPLSLPVTPGEPASISCQASESLVHSNRNTYLHWYLQKPGQSPQLLIYKVSNRFSGVPDRFSGSGSGTDFTLKISRVEAEDVGVYYCSQNTHVPPTFGQGTKVEIERTVAAPSVFIFPPSDEQLKSGTASVVCLLNNFYPREAKVQWKVDNALQSGNSQESVTEQDSKDSTYSLSSTLTLSKADYEKHKVYACEVTHQGLSSPVTKSFNRGEC
notes: He Ab: mutation in the GpH7-B3 H chain only; also called He Ab
B2: GpH7-A5/GpH7-B3 variant A327_07I/GpL16-k0 (antibody, human IgG1, kappa)
heavy 1: not shown
heavy 2: not shown
light: B1 light
notes: as for B1
B3: GpH7-A5/GpH7-B3 variant V266_20W/GpL16-k0 (antibody, human IgG1, kappa)
heavy 1: not shown
heavy 2: not shown
light: B1 light
notes: as for B1
B4: GpH7-A5/GpH7-B3 variant D265_19Q/GpL16-k0 (antibody, human IgG1, kappa)
heavy 1: not shown
heavy 2: not shown
light: B1 light
notes: as for B1
B5: GpH7-A5/GpH7-B3 variant D265_02A/GpL16-k0 (antibody, human IgG1, kappa)
heavy 1: not shown
heavy 2: not shown
light: B1 light
notes: as for B1
B6: GpH7-A5/GpH7-B3 variant P238_20W/GpL16-k0 (antibody, human IgG1, kappa)
heavy 1: not shown
heavy 2: not shown
light: B1 light
notes: also called He Ab P238_20W
B7: GpH7-A5/GpH7-B3 variant P331_10E/GpL16-k0 (antibody, human IgG1, kappa)
heavy 1: not shown
heavy 2: not shown
light: B1 light
notes: also called He Ab P331_10E
B8: GpH7-A5/GpH7-B3 variant P331_16H/GpL16-k0 (antibody, human IgG1, kappa)
heavy 1: not shown
heavy 2: not shown
light: B1 light
notes: also called He Ab P331_16H
B9: GpH7-A5/GpH7-B3 variant S337_20W/GpL16-k0 (antibody, human IgG1, kappa)
heavy 1: not shown
heavy 2: not shown
light: B1 light
notes: also called He Ab S337_20W
B10: GpH7-A5/GpH7-B3 variant S337_16H/GpL16-k0 (antibody, human IgG1, kappa)
heavy 1: not shown
heavy 2: not shown
light: B1 light
notes: also called He Ab S337_16H
B11: GpH7-A5/GpH7-B3 variant P271_10E/GpL16-k0 (antibody, human IgG1, kappa)
heavy 1: not shown
heavy 2: not shown
light: B1 light
notes: also called He Ab P271_10E
B12: GpH7-A5/GpH7-B3 variant T335_16H/GpL16-k0 (antibody, human IgG1, kappa)
heavy 1: not shown
heavy 2: not shown
light: B1 light
notes: also called He Ab T335_16H
B13: GpH7-A5/GpH7-B3 variant S239_10E/GpL16-k0 (antibody, human IgG1, kappa)
heavy 1: not shown
heavy 2: not shown
light: B1 light
notes: also called He Ab S239_10E
B14: GpH7-A5/GpH7-B3 variant Y296_20W/GpL16-k0 (antibody, human IgG1, kappa)
heavy 1: not shown
heavy 2: not shown
light: B1 light
notes: also called He Ab Y296_20W
B15: GpH7-A5/GpH7-B3 variant S324_06M/GpL16-k0 (antibody, human IgG1, kappa)
heavy 1: not shown
heavy 2: not shown
light: B1 light
notes: also called He Ab S324_06M
B16: GpH7-A5/GpH7-B3 variant T335_19Q/GpL16-k0 (antibody, human IgG1, kappa)
heavy 1: not shown
heavy 2: not shown
light: B1 light
notes: also called He Ab T335_19Q
B17: GpH7-A5/GpH7-B3 variant S239_05P/GpL16-k0 (antibody, human IgG1, kappa)
heavy 1: not shown
heavy 2: not shown
light: B1 light
notes: also called He Ab S239_05P
B18: GpH7-A5/GpH7-B3 variant S337_15Y/GpL16-k0 (antibody, human IgG1, kappa)
heavy 1: not shown
heavy 2: not shown
light: B1 light
notes: also called He Ab S337_15Y
B19: GpH7-A5/GpH7-B3 variant S239_03V/GpL16-k0 (antibody, human IgG1, kappa)
heavy 1: not shown
heavy 2: not shown
light: B1 light
notes: also called He Ab S239_03V
B20: GpH7-A5/GpH7-B3 variant S267_06M/GpL16-k0 (antibody, human IgG1, kappa)
heavy 1: not shown
heavy 2: not shown
light: B1 light
notes: also called He Ab S267_06M
B21: GpH7-A5/GpH7-B3 variant T335_13S/GpL16-k0 (antibody, human IgG1, kappa)
heavy 1: not shown
heavy 2: not shown
light: B1 light
notes: also called He Ab T335_13S
B22: GpH7-A5/GpH7-B3 variant T335_18N/GpL16-k0 (antibody, human IgG1, kappa)
heavy 1: not shown
heavy 2: not shown
light: B1 light
notes: also called He Ab T335_18N
B23: GpH7-A5/GpH7-B3 variant S267_19Q/GpL16-k0 (antibody, human IgG1, kappa)
heavy 1: not shown
heavy 2: not shown
light: B1 light
notes: also called He Ab S267_19Q
B24: GpH7-A5/GpH7-B3 variant T335_20W/GpL16-k0 (antibody, human IgG1, kappa)
heavy 1: not shown
heavy 2: not shown
light: B1 light
notes: also called He Ab T335_20W
B25: GpH7-A5/GpH7-B3 variant P331_07I/GpL16-k0 (antibody, human IgG1, kappa)
heavy 1: not shown
heavy 2: not shown
light: B1 light
notes: also called He Ab P331_07I
B26: GpH7-A5/GpH7-B3 variant S337_07I/GpL16-k0 (antibody, human IgG1, kappa)
heavy 1: not shown
heavy 2: not shown
light: B1 light
notes: also called He Ab S337_07I
B27: GpH7-A5/GpH7-B3 variant S337_18N/GpL16-k0 (antibody, human IgG1, kappa)
heavy 1: not shown
heavy 2: not shown
light: B1 light
notes: also called He Ab S337_18N
B28: GpH7-A5/GpH7-B3 variant P271_09D/GpL16-k0 (antibody, human IgG1, kappa)
heavy 1: not shown
heavy 2: not shown
light: B1 light
notes: also called He Ab P271_09D
B29: GpH7-A5/GpH7-B3 variant S267_01G/GpL16-k0 (antibody, human IgG1, kappa)
heavy 1: not shown
heavy 2: not shown
light: B1 light
notes: also called He Ab S267_01G
B30: GpH7-A5/GpH7-B3 variant V266_06M/GpL16-k0 (antibody, human IgG1, kappa)
heavy 1: not shown
heavy 2: not shown
light: B1 light
notes: also called He Ab V266_06M
B31: GpH7-A5/GpH7-B3 variant P331_20W/GpL16-k0 (antibody, human IgG1, kappa)
heavy 1: not shown
heavy 2: not shown
light: B1 light
notes: also called He Ab P331_20W
B32: GpH7-A5/GpH7-B3 variant T335_07I/GpL16-k0 (antibody, human IgG1, kappa)
heavy 1: not shown
heavy 2: not shown
light: B1 light
notes: also called He Ab T335_07I
B33: GpH7-A5/GpH7-B3 variant T335_10E/GpL16-k0 (antibody, human IgG1, kappa)
heavy 1: not shown
heavy 2: not shown
light: B1 light
notes: also called He Ab T335_10E
B34: GpH7-A5/GpH7-B3 variant P331_03V/GpL16-k0 (antibody, human IgG1, kappa)
heavy 1: not shown
heavy 2: not shown
light: B1 light
notes: also called He Ab P331_03V
B35: GpH7-A5/GpH7-B3 variant S239_06M/GpL16-k0 (antibody, human IgG1, kappa)
heavy 1: not shown
heavy 2: not shown
light: B1 light
notes: also called He Ab S239_06M
B36: GpH7-A5/GpH7-B3 variant P331_06M/GpL16-k0 (antibody, human IgG1, kappa)
heavy 1: not shown
heavy 2: not shown
light: B1 light
notes: also called He Ab P331_06M
B37: GpH7-A5/GpH7-B3 variant S298_06M/GpL16-k0 (antibody, human IgG1, kappa)
heavy 1: not shown
heavy 2: not shown
light: B1 light
notes: also called He Ab S298_06M
B38: GpH7-A5/GpH7-B3 variant P331_15Y/GpL16-k0 (antibody, human IgG1, kappa)
heavy 1: not shown
heavy 2: not shown
light: B1 light
notes: also called He Ab P331_15Y
B39: GpH7-A5/GpH7-B3 variant T335_15Y/GpL16-k0 (antibody, human IgG1, kappa)
heavy 1: not shown
heavy 2: not shown
light: B1 light
notes: also called He Ab T335_15Y
B40: GpH7-A5/GpH7-B3 variant S337_08L/GpL16-k0 (antibody, human IgG1, kappa)
heavy 1: not shown
heavy 2: not shown
light: B1 light
notes: also called He Ab S337_08L

T3 sequence (P08637 17-208): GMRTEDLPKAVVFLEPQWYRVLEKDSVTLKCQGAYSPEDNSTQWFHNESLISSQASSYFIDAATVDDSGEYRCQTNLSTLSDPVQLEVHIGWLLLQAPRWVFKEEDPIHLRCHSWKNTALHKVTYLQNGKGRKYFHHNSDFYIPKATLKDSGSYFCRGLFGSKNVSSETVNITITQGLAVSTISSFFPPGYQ

One test addresses T3, FcγRIIIa extracellular domain with C-terminal His tag (human, UniProt P08637 17-208).
T3 construct: extracellular domain; also called 3a; FcgRIIIa; not shown: His tag at the C terminus
The test can be described thus: SPR (Biacore), relative binding, GpH7-A5/GpH7-B3/GpL16-k0 = 100. The protocol: (§1) Analysis of interaction between objective antibody and the FcγR was carried out using Biacore T100 (GE Healthcare). HBS-EP+ (GE Healthcare) was used as the running buffer, and the measurement temperature was set to 25° C. Chips produced by immobilizing the antigen peptide by the amine coupling method to a Series S Sencor Chip CM5 (GE Healthcare), or alternatively, chips produced by allowing preliminarily biotinylated antigen peptides to interact with and immobilize onto a Series S Sensor Chip SA (certified) (GE Healthcare) were used. Antibodies of interest were captured onto an antigen peptide-immobilized chip, and allowed to interact to each FcγR diluted with running buffer. To regenerate and repeatedly use the chip, the antibodies captured on the chip were washed off by reacting 10 mM glycine-HCl, pH 1.5.
(§2) The FcγR-binding activity of each antibody was assessed primarily using as an indicator the FcγR-binding activity and dissociation constant for FcγR.
In general terms: Surface plasmon resonance follows binding to a sensor surface in real time, without labels.
In the case of B1, the He/Con_3a was 24 % of control. Same read-out and setting: next, B2: 42.4 % of control.

The target in the next test is T1, FcγRIIb extracellular domain with …. The test is described as above. The protocol: as §1, §2
B1: the He/Con_2b was 51.5 % of control. Same read-out and setting: next, B3: 71.9 % of control; B4: 33.4 % of control; B5: 19.9 % of control. With B2, the He/Con_2b is 127 % of control.

The target of the next test is T2, FcγRIIb. The test can be described thus: SPR (Biacore), binding relative to GpH7-A5/GpH7-B3/GpL16-k0 = 100. On the procedure: as §1, §2
As for B6, the He/Con_2b is 123 % of control.

As to B7, the He/Con_2b was 116 % of control. Still for that read-out and setting: next, B8: 116 % of control.

Take B9: the He/Con_2b was 109 % of control. On the same count and under the same terms, next, B10: 105 % of control.

On to B11, for which the He/Con_2b is 109 % of control. Still for that read-out and setting: next, B12: 102 % of control. With B13, the He/Con_2b was 181 % of control. The same measure, in the same setting: to B14 belongs 103 % of control. On the same count and under the same terms, next, B15: 112 % of control; B16: 100 % of control; B17: 102 % of control. Same read-out and setting: next, B18: 100 % of control; B19: 108 % of control. For the molecule B20, the He/Con_2b was 210 % of control. On the same count and under the same terms, to B21 belongs 102 % of control; to B22, 102 % of control. Same read-out and setting: next, B23: 218 % of control; B24: 104 % of control; B25: 114 % of control.

On to B26, for which the He/Con_2b is 104 % of control. Still for that read-out and setting: to B27 belongs 103 % of control. Turning to B28, the He/Con_2b is 120 % of control. Same read-out and setting: to B29 belongs 105 % of control; to B30, 251 % of control; to B31, 111 % of control. With B32, the He/Con_2b was 106 % of control. On the same count and under the same terms, next, B33: 108 % of control; B34: 119 % of control; B35: 101 % of control. Same read-out and setting: to B36 belongs 102 % of control; to B37, 102 % of control.

With B38, the He/Con_2b is 114 % of control. Still for that read-out and setting: next, B39: 108 % of control; B40: 100 % of control.
